In patent US20250135039A1, “INHIBITOR-RESISTANT MGMT MODIFICATIONS AND MODIFICATION OF MGMT-ENCODING NUCLEIC ACIDS” (Ensoma, Inc., priority 2022, published 2025):

Test system: U251 human glioblastoma cell line
Test: in vitro FM-HCR assay of MGMT activity (mPlum O^6MeG reporter plasmid)
Format: cell-based
Settings: for Reporter expression (%) mean, O^6BG: 100 μM O^6BG; for Reporter expression (%) mean, O^6BG / Reporter expression (%) mean, DMSO: U251 cells, flow cytometry 24 h after transfection, damaged/undamaged reporter, inversely related to MGMT activity; for Reporter expression (%) mean, DMSO: 0.1% DMSO; for MGMT activity (a.u.) DMSO / MGMT activity (% of WT) DMSO: DMSO condition; for MGMT activity (a.u.) DMSO / MGMT activity (a.u.) O^6BG: determined from percent reporter expression; for MGMT activity (% of WT) DMSO / MGMT activity (% of WT) O^6BG: relative to wild-type MGMT in same condition; for Relative MGMT activity (%): MGMT activity (a.u.) in O^6BG divided by DMSO x 100, higher values indicate resistance; for MGMT activity (a.u.) O^6BG / MGMT activity (% of WT) O^6BG: O^6BG condition; for Ratio percent reporter expression (O^6BG/DMSO): lower values indicate resistance to O^6BG; for O^6BG resistance relative to WT (%): percentage difference in relative MGMT activity between variant and wild-type MGMT
Summary of the method: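 U251 cells transfected with MGMT variant plasmid, mPlum O^6MeG reporter (or undamaged mPlum plasmid) and BFP control, in 100 μM O^6BG or 0.1% DMSO; flow cytometry at 24 h. mPlum count×intensity normalized to BFP; percent reporter expression = damaged/undamaged ×100, inversely related to MGMT activity.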

Molecule	Reporter expression (%) mean, O^6BG [%]	Reporter expression (%) mean, DMSO [%]	MGMT activity (a.u.) DMSO [a.u.]	MGMT activity (% of WT) DMSO	Relative MGMT activity (%)	MGMT activity (a.u.) O^6BG [a.u.]	MGMT activity (% of WT) O^6BG	Ratio percent reporter expression (O^6BG/DMSO)	O^6BG resistance relative to WT (%)
G160P: MGMT polypeptide with mutation G160P (protein) MDKDCEMKRTTLDSPLGKLELSGCEQGLHEIKLLGKGTSAADAVEVPAPAAVLGGPEPLMQCTAWLNAYFHQPEAIEEFPVPALHHPVFQQESFTRQVLWKLLKVVKFGEVISYQQLAALAGNPKAARAVGGAMRGNPVPILIPCHRVVCSSGAVGNYSPGLAVKEWLLAHEGHRLGKPGLGGSSGLAGAWLKGAGATSGSPPAGRN	47.5	22.8	4.40	81.3 % of WT	47.9	2.11	147.4 % of WT	2.09	81.2
A170S: MGMT polypeptide with mutation A170S (protein) MDKDCEMKRTTLDSPLGKLELSGCEQGLHEIKLLGKGTSAADAVEVPAPAAVLGGPEPLMQCTAWLNAYFHQPEAIEEFPVPALHHPVFQQESFTRQVLWKLLKVVKFGEVISYQQLAALAGNPKAARAVGGAMRGNPVPILIPCHRVVCSSGAVGNYSGGLAVKEWLLSHEGHRLGKPGLGGSSGLAGAWLKGAGATSGSPPAGRN	85.0	15.8	6.35	117.5 % of WT	18.5	1.18	82.4 % of WT	5.40	−29.9
wild-type MGMT: reference MGMT polypeptide according to SEQ ID NO: 1 (GenBank NP_002403.3); used as control (protein, REGION 1..207: note = Wild Type MGMT, used as control) MDKDCEMKRTTLDSPLGKLELSGCEQGLHEIKLLGKGTSAADAVEVPAPAAVLGGPEPLMQCTAWLNAYFHQPEAIEEFPVPALHHPVFQQESFTRQVLWKLLKVVKFGEVISYQQLAALAGNPKAARAVGGAMRGNPVPILIPCHRVVCSSGAVGNYSGGLAVKEWLLAHEGHRLGKPGLGGSSGLAGAWLKGAGATSGSPPAGRN	70.0	18.5	5.41	100.0 % of WT	26.4	1.43	100.0 % of WT	3.78	0.0
